Molecular target: Arp2 subunit of Bos taurus Arp2/3 complex (Bos taurus, UniProt A7MB62 1-394)
Experiment: crystal structure

binding result: binds
B1: Mus musculus GMFγ (glial maturation factor gamma), GST tag removed (natural protein)
chain: MSDSLVVCEVDPELKETLRKFRFRKETNNAAIIMKVDKDRQMVVLEDELQNISPEELKLELPERQPRFVVYSYKYVHDDGRVSYPLCFIFSSPVGCKPEQQMMYAGSKNRLVQTAELTKVFEIRTTDDLTETWLKEKLAFFR
